In patent publication US20250222125A1, “Anti-FGFR2b Antibodies, Conjugates and Methods of Use” (BeiGene, Ltd., priority 2024, published 2025):

Tests used:
[1] = target: human FGFR2b protein (recombinant, coated on ELISA plates) (human) (UniProt P21802); experiment: ELISA, plate-coated human FGFR2b
[2] = target: human FGFR2c on cells (human) (UniProt P21802); experiment: flow cytometry, human FGFR2c OE cells
Sequence of human FGFR2c on cells (human) (P21802 22-821): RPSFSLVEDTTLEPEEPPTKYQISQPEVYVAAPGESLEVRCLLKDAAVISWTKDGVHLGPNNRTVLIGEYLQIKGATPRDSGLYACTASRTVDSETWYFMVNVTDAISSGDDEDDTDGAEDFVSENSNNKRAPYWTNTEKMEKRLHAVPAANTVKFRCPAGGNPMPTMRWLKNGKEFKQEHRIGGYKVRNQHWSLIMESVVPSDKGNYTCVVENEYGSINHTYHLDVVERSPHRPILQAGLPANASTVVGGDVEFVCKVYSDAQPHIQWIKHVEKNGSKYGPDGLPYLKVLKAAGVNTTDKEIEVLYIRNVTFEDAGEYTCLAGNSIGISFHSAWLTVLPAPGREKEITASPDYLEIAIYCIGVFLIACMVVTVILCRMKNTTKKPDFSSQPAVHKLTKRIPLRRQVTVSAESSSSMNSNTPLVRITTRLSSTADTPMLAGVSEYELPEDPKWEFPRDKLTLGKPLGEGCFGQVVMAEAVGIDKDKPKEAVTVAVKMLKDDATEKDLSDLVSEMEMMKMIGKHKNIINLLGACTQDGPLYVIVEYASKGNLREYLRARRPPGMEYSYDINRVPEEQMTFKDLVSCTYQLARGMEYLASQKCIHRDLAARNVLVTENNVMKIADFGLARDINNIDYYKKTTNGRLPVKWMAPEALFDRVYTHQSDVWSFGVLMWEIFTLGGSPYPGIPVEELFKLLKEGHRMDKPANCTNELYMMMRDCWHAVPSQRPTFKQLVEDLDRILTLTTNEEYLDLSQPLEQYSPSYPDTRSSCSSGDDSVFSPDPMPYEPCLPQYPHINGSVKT

Isotype IgG control CB-6 (antibody)
Emax (OD450) [1]: 0.08 OD450
Emax (MFI) [2]: 27 MFI
